Consider 19 sequences from the DeepSol protein solubility set.

The nature of the data set: soluble on expression in E. coli; label from the status in PepcDB or PDB records.
As to “MSLKTIAFDSNKYLNLQRDHILERISQFDGKLYMEFGGKMLEDYHAARVLPGYEPDNKIKLLKELKEQVEIVIAINANNIEHSKARGDLGISYDQEVFRLIDKFNTLDIYVGSVVITQYNNQPAADAFRKQLEKNGIASYLHYPIKGYPTDINHIISSEGMGKNDYIKTSRNLIVVTAPGPGSGKLATCMSQMYHDQINGVKSGYAKFETFPVWNLPLHHPVNLAYEAATADLDDVNMIDPFHLETYGKTAVNYNRDIEVFPVLNRTFERILSKSPYASPTDMGVNMVGFSIVNEEAAIEASKQEIIRRYYQTLVDFKAERVTESAVKKIELLMNDIGVTPDDRHVTVAAHQKAEQTGQPALALQLPNGQIVTGKTSGLFGPTAAVIINAIKTLAKIDKTTHLIEPEYVKPIQGLKVNHLGSHNPRLHSNEILIALAITAMTSEEANLAMKELGNLKGSEAHSTVILTEEDKNVLRKLGVNITFDPVYQHHKLYRKEGHHHHHH”, the “soluble on expression in E. coli” value is “soluble”.
“MSLKTLMAVGLAAVMSIPFAANAADYVIDTKGAHASINFKVNHLGYSYIKGRFNKFDGEFSYDPANIAASSVVVNVDTRSLDSNHAERDKHIRSADFIDASKYSTATFKSTEVVDKGNGQLEVKGDLTLHGQTKPIVINAEFIGAGQDPWGGQRSGFAGTTRLELKDFGIQVMGASSYVDMELHVEGVQKEGGSHHHHHH”: the “soluble on expression in E. coli” value is “soluble”.
As to “MSLKTTEYVAEILNELHNSAAYISNEEADQLADHILSSHQIFTAGAGRSGLMAKSFAMRLMHMGFNAHIVGEILTPPLAEGDLVIIGSGSGETKSLIHTAAKAKSLHGIVAALTINPESSIGKQADLIIRMPGSPKDQSNGSYKTIQPMGSLFEQTLLLFYDAVILKLMEKKGLDSETMFTHHANLEEGGSHHHHHH”, the “soluble on expression in E. coli” value is given as “soluble”.
Consider “MSLKTVVVIGGGITGLSTMFYLEKLKKDYNIDLNLILIEKEEYLGGKIHSVEEKDFIMESGADSIVARNEHVMPLVKDLNLEDEMVYNETGISYIYSENMLHPIPSDTIFGIPMSVQSLFSSTLVSTKGKIVALKDFITKNKEFTKDTSLALFLESFLGKELVERQIAPVLSGVYSGKLNELTMASTLPYLLDYKNKYGSIIKGFEENKKQFQSAGNKKFVSFKGGLSTIINRLEEVLTETVVKKGVITTAVSKQEDRYEISFANHETIQADYVVLAAPHDIAQTLLQSNELNEQFNTFKNSSLISIYLGFDILDEQLPADGTGFIVTENSDLHCDACTWTSRKWKHTSGKQKLLVRMFYKSTNPVYETIKNYSEEELVRVALYDIEKSLGIKGEPEVVEVTNWKDLMPKYHLEHNQAVQALQEKMTNLYPNVYLAGASYYGVGIGACIGNGKNIANEIMDTLNKEGHHHHHH”, for which the “soluble on expression in E. coli” value was “soluble”.
For the sequence “MSLKVEYFSDSSAVPHLHLENEDSYSVTDDLFIVADGVGSYEGSKDASRYAVNYLSKMAKEIQSKEQLVEEIIKLSEEIKSIGIISGRPLMSTTISVLKISTEKYITANVGDSPIVLLRSGKLYKLYIDDSERSSTGNRFALEQAFGWNHVIVHSFEGKLEKGDLFIICTDGVSDNLSDEYDLYSILRELDAQTIVRLALNKGIKPDDATIIKVYVTMAEGHHHHHH”, the “soluble on expression in E. coli” value is “soluble”.
Regarding “MSLKVHHLNESRSQRILWLLEELSLPYEIVQHTRDAKTRLAPPSLTDVHPLGKSPVIQDGALVVIESGAIIDYIIRRHGGGRLAPDAASADYDRYQQWLHYAEGSAMLPLMLNMYVGRLGEAGAPLHPRIQSEIANHLAFVNDSLAGRDYFVGDSLTGADIQMSFVPEVAKAMGKLADYPHMAAWIGRMHARPAWKTALDKGGPYALGAEGHHHHHH”, the “soluble on expression in E. coli” value is “soluble”.
For “MSLKVIATDMDGTLLDARGQLDLPRLEKILDQLDQRGIRFVIATGNEIHRMRQLLSPLVDRVVLVVANGARIFENNELIQAQTWDDAIVNKALTHFKGRACQDQFVVTGMKGDFVKEGTIFTDLESFMTPEMIEKFYQRMQFVDELTSDLFGGVLKMSMVVGEERLSSVLEEINALFDGRVRAVSSGYGCIDILQAGIHKAWGLEELLKRWDLKSQEIMAFGDSENDVEMLEMAGIAYAMENADEKAKAVATALAPANSQGGVYQVLENWLEKGEGHHHHHH”, the “soluble on expression in E. coli” value is “soluble”.
The result for “MSLKVLIKTDLVLGAPKTLRDVYIGIDEGQIKVISKEKPEDYDYAEYVIGGKNRVVAPGFVTTHSFLYLYPFRYRVFSGKANAFQLMSTLTPNDIYYFSLMGAYHLLKTGVTTVVTSGPNLDMIARAISEVGLRPVLAVGVDCPDSKEDWEREFTTLYNRWSSKNENRVILRLCSNEYSKEVFELSQQYDFPVLLERFVSLENISGNPINVIGLGGGARKDLDIIKQKGFHLASTPSYEVSQFPLSQYKPSISLDLSPTFDIRHEVSTSITRLILTPEEALNAMTIWGLLQLKYNDRGVLENGKVADLVIFEVKEPPTFPLDYESPYESIVFNLSTPETVLVSGEAILDGGVPLNIGIKHIEKAIERLEDIDKKVTEGHHHHHH” reads “soluble”; that for “MSLKVYITYGTADFLKTIVQKHPSENILLMQGQENAILIHETNGDTVFQAPHAYEVIDQVGEIKHPGFAVLNNIAVTQEGRPLFENRFKNRAGKVENEPGFEAIRVLRPLDSDTYVILTLWETESAFQDWQQSGSYKEAHKKRDTSAGIDTTSIFSRPSYVTTYFAVEEGGSHHHHHH”, “soluble”; that for “MSLKYAWIELHSRQWPVSLTCQVLGVSPSGYHARKARDVDTDRARRRISNDALLVHIKAVHAESKGEYGWPRVWKKLLAQGIRVSKDRVQQLMKLHGIRAKTKRRFKVTTDSNHSLPVAPDLLQRDFSPARPDQVWTMDITYIWTDEGWLFLTVILDLFSRQVVGWSMQPHMRTELVSDALRMAWFRRRPEAGLIVHSDRGSQYCSRDFQDLLKGYGMRSSMSRRGNCWDNAPTESLWGSLKRARILGQRFATRREAMDEVIDWLSFYNHSRLHSTLGYVSPMQFERDWYAAQNQRVAEGHHHHHH”, “not soluble”.
For the sequence “MSLKYIVVTGGVMSGLGKGITAASIGRLFVDMGYRVIPIKIDPYINIDAGTMNPFQHGEVYVLKDGTEVDLDLGHYERFIGEEVTGDHNITTGKIYKRVIEKERKGDYLGQTVQIIPHVTDEIKSWIRRVAKESNAEICLVEIGGTVGDIEGMPFLEAIRQMHNEEKEEDFALVHVTLVPLDAGGEQKTKPTQHSVKELRELGLHPDVIVGRCSERLKPATKKKIALFCDVPEEAVISNEDAEDIYEVPLIFKREKLDEYLMRKLNLRAKESRKEWEEMVKRMKTLYEEASIAIVGKYVDVRDAYLSIKEALKHGGIEAGCKVNIVWVDSEDLENVDDFTLDVDGILVPGGFGARGAEGKIRAIEYARENGVPFLGICFGFQLAVIEFARNVVGFSEANSTELDENTPHPVIDLLPEQKGIDEMGGTMRLGDIEVTIKPGTIAHKLYGSEKVVERHRHRYEVNPEYIEKIESKGLVFSAYSDGGRRMEIAELPDHPFFFATQFHPEFKSRPYRPSPPFVGFVRAALKYRREEEIEGHHHHHH”, the “soluble on expression in E. coli” value was “soluble”.
As to “MSLKYLLLGMMLLGSFAASAGMDPQQLKQTIEQRLGVQVYLVDETPMPGLYMLGTAQGLLYTDARGDYVLQGTMLDLAHDMKNLTMLGLRQQRQLALAQIGERRVQLRAEQERHRVTLFTDLACSSCRTTLAELPVLQARGVSVQLLPVLGTFADLAEAQARWCDPRQFDALDLSDRLPETGCNEILAHHIGLSQWLGIKALPSWVLPNGDLVRGYQSPEQLLKILDHINAPANPSSEGHHHHHH”, the “soluble on expression in E. coli” value was “soluble”.
Consider “MSLLFNTEDLKAIFQEVSLNPSDRLVCNNSNTIYLWQDNILRVQSDHETQYRSYNVELPFVPEQMVISPSGGLVAFHANSELYVMEVNEQSRLRKHFNTSLGIKKLLWHPLATYGLSFVILHDDSTIRIYDLEDLEPESITVFNRKSRSFGLSDHVESVCDIAFDPTGLTLYLLSSFNYCDIYAIHPCLPKNFSLRSNDTSNVTSRTKNGSLADYMLHKSLSLYNSLDKQLKLISGSDPDVESDYLTLKHDLLKQIQFFDNYKKNDGIDTFTSKAIRNSVPQGPFIIKKFPTALNAKEVTGLTIIPVGERLGLLNLQFIDGTNVVLFSDSEIVMSWSLRSNTTFNNLSVITMFNAKGQCQLLNSSEPKLVFTGDSSTTIMEMPWLEPLAQCIRLHDFSIIDDVKFENKIRTVSGTFLGVLSTLSGDILYNGNSFKVIESNDKSTTQKPINRTDEVKYTYKPSLPTSGKELDMLLTKYKTEANGFISGIPDSLAPLPLKNEGHHHHHH”, for which the “soluble on expression in E. coli” value is “soluble”.
“MSLLLPANEQRPVVDIFVEGRRISAREGETIAAALLNAGIVPFRRTPVSGQPRAPLCLMGVCFECLVEVDGAQNVQSCMVRVNAGMQVGLPTGARRAGDGEGHHHHHH”: the “soluble on expression in E. coli” value is on record as “not soluble”.
The result for “MSLMESWLIPAAPVTVVEEIKKSRFITMLAHTDGVEAAKAFVESVRAEHPDARHHCVAWVAGAPDDSQQLGFSDDGEPAGTAGKPMLAQLMGSGVGEITAVVVRYYGGILLGTGGLVKAYGGGVNQALRQLTTQRKTPLTEYTLQCEYHQLTGIEALLGQCDGKIINSDYQAFVLLRVALPAAKVAEFSAKLADFSRGSLQLLAIEEEGGSHHHHHH” reads “soluble”.
For “MSLMGYKNNRVGYQKELLTSRAVIKKDNYAIIPHDGLVQNAVPGFENVDISILGSPKLGATFVDYIATFHKNGQQTTGFGGDGIQTLVYVIDGRLRVSDGQETHELEAGGYAYFTPEMKMYLANAQEADTEVFLYKKRYQPLAGHQPYKVVGSIHDQQPEEYEGMTDVLLWSLLPKEFDFDMNMHILSFEPGASHAYIETHVQEHGAYLISGQGMYNLDNEWYPVEKGDYIFMSAYVPQAAYAVGREEPLMYVYSKDANREPELEGGSHHHHHH”, the “soluble on expression in E. coli” value is “soluble”.
For “MSLMKFIIKLFPEITIKSQSVRLRFIKILTGNIRNVLKHYDETLAVVRHWDNIEVRAKDENQRLAIRDALTRIPGIHHILEVEDVPFTDMHDIFEKALVQYRDQLEGKTFCVRVKRRGKHDFSSIDVERYVGGGLNQHIESARVKLTNPDVTVHLEVEDDRLLLIKGRYEGIGGFPIGTQEDVLSLISGGFDSGVSSYMLMRRGCRVHYCFFNLGGAAHEIGVRQVAHYLWNRFGSSHRVRFVAINFEPVVGEILEKIDDGQMGVILKRMMVRAASKVAERYGVQALVTGEALGQVSSQTLTNLRLIDNVSDTLILRPLISYDKEHIINLARQIGTEDFARTMPEYCGVISKSPTVKAVKSKIEAEEEKFDFSILDKVVEEANNVDIREIAQQTEQEVVEVETVNGFGPNDVILDIRSIDEQEDKPLKVEGIDVVSLPFYKLSTKFGDLDQNKTWLLWCERGVMSRLQALYLREQGFNNVKVYRPEGGSHHHHHH”, the “soluble on expression in E. coli” value is “soluble”.
The result for “MSLMMFRYANFQIIKKEQELVISRGIIEKHQVTIPLRKIQAIKIKENIIRQLFGFVTVSIVSAGGGDREKEEGALTILFPMIHKKKLPHMLRTFTPEYTLEENCRRLPRREGHHHHHH” reads “not soluble”.
Consider “MSLNAGKVVQTAKLFQDIHPEERLEKTLVDDRFAALREVIAGRTDGGQSGGGTMQIASLLTMLNEYYTQLTIADSALAAGTLPARITAADKLQLEAAKLPAPLKNILLDLTKQGTRKINAGTGDVLNTQMEAMMGDDCRDAIDGRYPFADSPQEVSAEDFNRIFASGGVLDAFWSKQLAPLADTASDPWRYKPTEGNMTLQGPDLTPFQQAKQIRSVFFNSEGGKKFSWSMQISVVDMDPAIMELVIDIDGQVLRYAHGPDRPLKVTWPGPRNGSMAEITASPRIRQDTSTLLTGGPWALFHLLDAGMVQETAVRGRQLVEYDFDGRRVVLEITAGRDFNPVSRELLQNFSCPARALEGHHHHHH”, for which the “soluble on expression in E. coli” value is reported as “not soluble”.
